{"source": "patent US20140234868A1", "about": "“USE FOR GLYCOLIPOPROTEIN GINTONIN, ISOLATED AND IDENTIFIED FROM GINSENG, AS A NATURAL MEDICAL-PLANT DERIVED LIGAND” (KONKUK UNIVERSITY INDUSTRIAL COOPERATION CORP., priority 2011, published 2014)", "molecules": {"B1": {"name": "gintonin: ginseng-derived glycolipoprotein; structural protein of ginseng major latex-like protein (MLP151) and ribonuclease-like storage proteins; crude gintonin used in tests (protein)", "chain 1": "MGLTGKLICQTGIKSDGDVFHELFGTRPHHVPNITPANIQGCDLHEGEFGKVGSVVIWNYSIDGNAMIAKEEIVAIDEEDKSVTFKVVEGHLFEEFKSIVFSVHVDTKGEDNLVTWSIDYEKLNESVKDPTSYLDFLLSVTRDIEAHHLPK", "chain 2": "RSDYPWAMFALRLQWPAGFCEVNNACDTKSLLNTFTIHGLYPYNAKGTPALYCDGTAFDVNSVSDFLAEMHLAWPSHETNTEDIQFWEHEWKKHGRCSEALLKQTDYFRTALAFRKAFDIVGLLNQEGIYPNNDLYRPKMIKEAIKKHLNAVPEIDFTKNENSEYVLTDINVCVNQQATRFVDCPTDDATDDYRLKFVRLPSKMKFADPRTNSII"}}, "assay_type_in_all_cases": "cell-based", "key": {"[1]": {"molecular_target": "T1, LPA6 receptor (Homo sapiens, UniProt P43657)", "T1 construct": "host or cells: B103 rat neuroblastoma cells", "T1 sequence (P43657 1-344)": "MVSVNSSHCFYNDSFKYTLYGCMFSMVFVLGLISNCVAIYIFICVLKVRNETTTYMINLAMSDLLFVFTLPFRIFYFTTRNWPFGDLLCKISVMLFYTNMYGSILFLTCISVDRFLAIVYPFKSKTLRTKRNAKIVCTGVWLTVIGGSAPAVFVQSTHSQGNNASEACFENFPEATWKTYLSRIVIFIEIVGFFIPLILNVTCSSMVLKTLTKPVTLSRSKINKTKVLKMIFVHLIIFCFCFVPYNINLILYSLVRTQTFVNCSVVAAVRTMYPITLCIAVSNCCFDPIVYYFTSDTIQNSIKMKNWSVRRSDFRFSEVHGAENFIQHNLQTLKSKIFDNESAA", "experiment": "Intracellular cAMP level in LPA6-expressing B103 cells", "from_the_text": "After treatment with gintonin, B103 cells expressing LPA3 or LPA6 receptor were examined for change in intracellular cAMP level."}, "[2]": {"tested_on": "GPR87, GPR40, GPR41, GPR43 and GPR120", "experiment": "Intracellular free Ca2+ in B103 cells expressing other orphan GPCRs and fatty acid receptors", "details": "B103 cells expressing the other receptors (GPR87, GPR40, GPR41, GPR43, GPR120)", "from_the_text": "Optionally, the method may further comprise (8) pre-treating the suspended B103 cells with LPA receptor antagonists and LPA receptor-mediated signaling-relevant drugs (e.g., pertussis toxin, PLC inhibitors, IP3 receptor antagonists) to examine whether the cells decrease or increase in intracellular free Ca^2+, prior to treatment with gintonin; (9) performing site-directed mutagenesis to identify an amino acid of LPA receptors with which gintonin interact to activate the LPA; and (10) examining whether gintonin activates orphan GPCRs including GPR35 and GPR87, and free fatty acid GPCRs including GPR40, GPR41, GPR43 and GPR120, all known for activation by LPA.\nIn addition, GPR35 (Oka et al., Biochem Biophys Res Commun. 395, 232-237, 2010) and GPR87 (Tabata et al., Biochem Biophys Res Commun. 363, 861-866, 2007), both known as orphan GPCRs reacting with LPA, and GPR40, GPR41, GPR43 and GPR120 (Hirasawa et al., Biol Pharm Bull. 31, 1847-1851, 2008), all known as fatty acid receptors reacting with free fatty acids, were expressed in B103 cells when gintonin activity was tested."}, "[3]": {"molecular_target": "LPA5 receptor (Homo sapiens, UniProt Q9H1C0)", "sequence (Q9H1C0 whole entry)": "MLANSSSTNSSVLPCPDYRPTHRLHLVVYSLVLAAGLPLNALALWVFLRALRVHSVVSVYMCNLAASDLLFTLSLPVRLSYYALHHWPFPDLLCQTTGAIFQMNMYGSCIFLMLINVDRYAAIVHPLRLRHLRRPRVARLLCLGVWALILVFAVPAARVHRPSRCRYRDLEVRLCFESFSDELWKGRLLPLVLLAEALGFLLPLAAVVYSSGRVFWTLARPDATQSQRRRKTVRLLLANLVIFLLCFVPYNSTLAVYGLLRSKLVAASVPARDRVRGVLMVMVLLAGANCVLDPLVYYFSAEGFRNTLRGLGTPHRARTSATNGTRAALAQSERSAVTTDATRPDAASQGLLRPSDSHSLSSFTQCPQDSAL", "experiment": "Intracellular free Ca2+ (Fura-2AM) in LPA5-expressing B103 cells", "design": "host or cells: B103 rat neuroblastoma cells", "from_the_text": "LPA family receptors are endogenous to cells of most organs. B103 rat neuroblastoma cells, known as LPA receptor-null cells (Valentine et al., Biochim Biophys Acta 1780. 597-605) were transiently transfected with a plasmid (vector) carrying one of genes coding for LPA1(edg-2), LPA2(edg-4), LPA3(edg-7), LPA4, LPA5 and LPA6 receptors or a plasmid carrying none of them (empty vector). Two or three days after transfection, the cells are suspended, and made permeable. Then, the permeable cells are treated with Fura-2AM, a fluorescent dye binding to calcium, and then with gintonin, followed by spectrofluorephotometry to examine whether gintonin induces an increase in intracellular free Ca^2+ level. […]"}}}
{"molecule": "B1", "values": [{"measurement": "change in intracellular cAMP level", "setting": "[1]", "result": "no influences on intracellular cAMP level"}, {"measurement": "increase of intracellular calcium level", "setting": "[2]", "result": "not act on the other receptors"}, {"measurement": "EC50", "setting": "[3]; LPA5 receptor, B103 cells, read-out: EC50, LPA receptor-mediated intracellular calcium increase", "result": "0.046 ± 0.003", "unit": "nM"}, {"measurement": "increase in intracellular calcium level", "setting": "[3]; gintonin 1 μg/ml, LPA5-expressing B103 cells", "result": "297.5 ± 21.8", "unit": "µM"}]}
